The RNAGym collection of RNA variant scans (doi:10.1073/pnas.2313332121)
This sample holds only a part of the variants without activity.

B1: TPR 5TU (parent)
chain: GGAUCUUCUCGAUCUAACAAAAAAGACAAAUCUGCCACAAAGCUUGAGAGCAUCUUCGGAUGCAGAGGCGGCAGCCUUCGGUGGCGCGAUAGCGCCAACGUUCUCAACUAUGACACGCAAAACGCGUGCUCCGUUGAAUGGAGUUUAUCAUG

Variants of: B1
Assay: polymerase ribozyme fitness, log enrichment relative to wild type (log ratio); higher = more active; in vitro selection for triplet polymerase activity
In short: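 One round of in vitro selection, in triplicate, was applied to PCR-built, transcribed mutant libraries of each subunit of a heterodimeric triplet polymerase ribozyme. The steps were annealing with a biotinylated primer, partner subunit and triplets, incubation frozen at −7 °C, gel excision of extended constructs, streptavidin-bead capture and RT-PCR. Fitness is the logarithm, base 2, of genotype enrichment over wild-type enrichment from inverse-variance-weighted replicate averages of Illumina-sequenced inputs and outputs, keeping genotypes with ≥10 input reads and ≥1 read per output.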

Point of comparison: G58A C95U C96G, “polymerase ribozyme fitness (log ratio)” value -1.01. Against it:
- C5U C93G — lower, -3.16
- C57A A60G C75G A91U G136A A137G U144G — lower, ≤ -4.2
- U13G C96G A120G — lower, -1.51
- C123A G141C — higher, 0.333
- A52C G58C C85A — lower, -3.96
- A19U A23U U90G C105A — lower, ≤ -4.2
- G50U A107C C132A — lower, ≤ -4.2
- A40U C114U A121C — lower, -2.44
- U55A G81C G84U C116A — lower, -2.11
- A21G A52C C75G C85U A89G C96G A150G — lower, -3.89
- G70A C85G — lower, ≤ -4.2
- C93U U151A — lower, ≤ -4.2
- U7G G48A G59A A60G A97G — lower, -3.81
- U31C A98U U134A — lower, -1.41
- U56A C57U C96U — higher, -0.285
- A21U G50C G84U — lower, -4.11
- G94U C123G G141A U146C — lower, -2.83
- C43G G86A — lower, ≤ -4.2
- C85G A106C G141U G143U U151A — lower, ≤ -4.2
- G50C A89U G94U C96U A115G — lower, ≤ -4.2
- A17U A19U A22G G88U A110G — lower, ≤ -4.2
- A30U G74A C93G C103A A106G A113U — lower, ≤ -4.2
- U144A U145A — higher, -0.541
- C8U C54A — lower, -3.8
- C51G U53G C75A C103A — lower, ≤ -4.2
- A28G G94C G100U U134G — lower, ≤ -4.2
- C8G A29U A41G U61A G68A U82C A89G C116U — lower, ≤ -4.2
- C32G U55A C79A C116G C149A — lower, ≤ -4.2
- C57A G86U — lower, -1.32
- A29C U53A G84C C93U A121G C125G — lower, ≤ -4.2
- A30U C69U C85U A106G C123U A137G — lower, ≤ -4.2
- C5G C36A G58A A73G C85U — lower, ≤ -4.2
- G84C U134G — lower, ≤ -4.2
- A47C G141C U148G — lower, ≤ -4.2
- A39U U44G U109C — lower, ≤ -4.2
- A3C A121U — higher, 0.339
- A60G C87A U109A C132G — lower, ≤ -4.2
- C36U G58A A119G G140A — lower, -4.18
- C10G U56A A89U C99U G112C U145G — lower, ≤ -4.2
- C5U A30G A52U C76G G94A C118U U148A — lower, ≤ -4.2
- C87U U90C — lower, -3.33
- U7G A19C A40G U56A A120G A150C — lower, ≤ -4.2
- U31A C93A U127C — lower, -3.92
- A16G A22U A91U C93U U102G G128U — lower, ≤ -4.2
- A41U C51G G58U U61A G68A C96A A97C U102C — lower, ≤ -4.2
- A23U A41G — lower, -3.88
- U56A A73G C76U — higher, 0.764
- A49C U56A A113U G152U — lower, -3.93
- G94A C149U — lower, -1.24
- A20G G136A — higher, 0.27
- G83U C114G A115U A119U — lower, ≤ -4.2
- G68U A150G — lower, ≤ -4.2
- A41C U56A C87U U135G — lower, ≤ -4.2
- U55A A121C — higher, -0.369
- U104G A113U U127A G141A — lower, ≤ -4.2
- C57A G58U C76A C85U C96U A147G — lower, -3.03
- C5G A20G C75U C87U A119G A142G — lower, -3.16
- G11A C51U G81C G92A U151A — lower, ≤ -4.2
- C8A G86A — lower, -3.76
- C35U G92C U135C — lower, -2.73
- C38U C85G — lower, -3.44
- C99U U104A U109C A115G — lower, -3.79
- G48C G68C G70A C129G — lower, ≤ -4.2
- U9G A29U U45G C75A G88U C96A G141A — lower, ≤ -4.2
- U15C A28G U146C — lower, ≤ -4.2
- C35U U78A G128A — lower, ≤ -4.2
- A21U A23U A24C C54U G81A C85U — lower, ≤ -4.2
- C51U G84C C87A C95A A122C A137U G141C — lower, ≤ -4.2
- A23U C108A G143C — lower, ≤ -4.2
- A89G A110U U151A — lower, -3.58
- U33C A41C — lower, -3.48
- C10G U61A C93A U139A — lower, ≤ -4.2
- A22U G25C G48C A122U — lower, ≤ -4.2
- U78G C96U A107U G141C A150G — lower, ≤ -4.2
- A16C C99G C125A — lower, -2.16
- C5A A26U C35G A39U C76U C85U C118U A119C — lower, -4.09
- G84U G86A U90A G100A — lower, ≤ -4.2
- A16G C27G G70C C87U A119U G133C G143A — lower, ≤ -4.2
- C10G C32A G58U G59U U130C — lower, ≤ -4.2
- U9A G25C C38U G71U U135C A147G — lower, ≤ -4.2
- C54U C75U G84C A98U A113G C129U — lower, ≤ -4.2
- U13G A21U C96U G133C A147C — lower, -4.05
- G11U C93G — lower, -3.88
- A39G C96U C125A — lower, -2.58
- C69U C87A — lower, ≤ -4.2
- A29U U53A — lower, -4.15
- C36A C96A — lower, ≤ -4.2
- C10U A60G A64U C85U C129A — lower, ≤ -4.2
- C18G G25C U33C C108G — lower, -3.95
- C8U C95U C116G U135A — lower, -3.94
- C85A C95A — within 0.2 log units, -0.893
- G11A U55A U77G G83C A142U — lower, ≤ -4.2
- C51U G141A — higher, 0.523
- U4G C14G C76G — lower, ≤ -4.2
- U82G A91U A110U G117A — lower, ≤ -4.2
- U55A A98U — higher, -0.0691
- A12U A24U C43A G46A U53A U55A C57U A60G G80U C93G — lower, ≤ -4.2
- C14U U31A G48C G67C A91U — lower, ≤ -4.2
- G84C A97G — lower, -1.95
- G62U C116U — higher, 0.138
- G58A C85G A115G — lower, -2.89
- A40U U61A A122G — within 0.2 log units, -1.1
- A12U A39G C95U — lower, -2.3
- C8A U44C C79G G86C G140U — lower, ≤ -4.2
- G62C C72U C93U G133A G141U — lower, ≤ -4.2
- C18A A89G U90G A97G — lower, ≤ -4.2
- U101G G128U U144G — lower, -4
- A41U U144G — higher, 0.164
- A52C C85G G92U — lower, ≤ -4.2
- C27G C85G G88A G100C U148G — lower, ≤ -4.2
- U13C A19U U55A G83A U111G — lower, ≤ -4.2
- U6A C18U A20C A22C U44C U55A C87A — lower, ≤ -4.2
- A49U A150U — higher, -0.0151
- C27U G68U G74U U77C G80C U104C C116G — lower, ≤ -4.2
- C27U C93U — lower, -3.3
- C8G A21C — lower, -3.31
- A52C C57A C69U C85U — lower, -3.07
- A49G U53A G59A A142U — lower, -2.64
- C96A A97G G143A — within 0.2 log units, -0.965
- A16U A22C A30U U55A C57A C76G G81U G84C — lower, ≤ -4.2
- A17U C54A A89C C99A G136A — lower, -4.03
- C8G A20C — lower, -3.59
- A3C A47U — within 0.2 log units, -0.813
- A52G C57A A66G G68C C93U U101G G112U G140C U145A — lower, ≤ -4.2
- U77C C79U C132A — lower, ≤ -4.2
- A40C A41C A107U C108G G117C — lower, ≤ -4.2
- A39G A49U U55A U56A A91U — lower, ≤ -4.2
- A16G A52G C57U A73C C85U C96G — lower, ≤ -4.2
- G46C G74C C87A — lower, ≤ -4.2
- A24U A49C C54U C75G C85A A122U U144C A147C — lower, ≤ -4.2
- C93G C125G A150U — lower, -4.06
- A30G A49C G88U A110G — lower, ≤ -4.2
- U13C C76A U82G C85U C118G — lower, -2.92
- U55A G58U C93G — lower, -3.78
- C14G A22C A73U — lower, -3.92
- A52U C95U — lower, -1.52
- G71C — lower, -2.66
- A12U A24C G46A A52G G141U A147G — lower, ≤ -4.2
- G83A A107G G136A G140A — lower, ≤ -4.2
- A21C C63U A73C C95A A98U — lower, -3.29
- A22C C85A A137G — lower, -2.49
- C57A G68C C85A U134A U146C — lower, ≤ -4.2
- C69G C96U C103A — lower, -3.44
- C18G G84U G117U A121G — lower, -2.06
- U61G A91C C93U C114A G126A U135G — lower, ≤ -4.2
- A52C C108A — lower, ≤ -4.2
- C76U C118A — lower, -2.21
- C75U A91G C99U — lower, -3.56
- G50U A52C A107G — lower, ≤ -4.2
- G50A G84A A142C — lower, -3.15
- A47U C95U — higher, -0.679
- A20G C51U G58A C85U A106U — lower, -2.76
- U82C C96A — within 0.2 log units, -0.964
- G83C U104G — lower, -2.14
- A19G G50U U55A C96U U145G — lower, -2.18
- C72U U77C C96A A110G — lower, ≤ -4.2
- A49C U55G A60U G65A G74C U77A — lower, ≤ -4.2
- A12C A20U C79U G84U — lower, ≤ -4.2
- C10A U53A C85A C96G G100A U127C U146A — lower, ≤ -4.2
- C38A C76A A97G U134G — lower, -3.3
- G84A G140A — lower, -3.27
- G84C G92U A150U — lower, -2.39
- C38U A47U C54A A73G U78A A91U C114A A115U C116U G136C U146G — lower, ≤ -4.2
- U53A C95G C96G U146A — lower, -3.91
- C96U C132A — lower, -1.63
- U7C G68U A73G U82A G92A U101C C116A A137C — lower, ≤ -4.2
